Patent US20180021429A1, “ANTICANCER AGENTS OR ANTIMETASTATIC AGENTS USING FSTL1 AND COMBINATION DRUG THEREOF” (PHARMA FOODS INTERNATIONAL CO., LTD., priority 2015, published 2018)
Numbering of substitutions follows the chain as printed. “Also recorded” adds a separate entry of the source.

Legend:
[1] = test system: C57/BL/6 mouse-derived bone marrow cells; test: MSC induction inhibition test using mouse bone marrow cells, FSTL1 stimulation (Example 27); type: cell-based; settings: FSTL1 20 ng/mL; antibody 10 μg/mL; 8 days; FIG. 21A
Experimental: (§1) In this Example, the inhibitory activity of the anti-FSTL1 antibody was confirmed in an experimental system of mesenchymal stem cell induction while a FSTL1 inhibitory effect on MSC expansion induced not only by FSTL1 but by Snail+ tumor cells was also evaluated. For specific operation, each antibody (10 μg/mL) was added to systems in which C57/BL/6 mouse-derived bone marrow cells were stimulated with FSTL1 (20 ng/mL) or a culture supernatant of tumor cells. After culture for 8 days under stimulation, cell fraction CD45(−) cells (MSCs) containing MSCs at a high rate and CD45(−)CD146(+)ALCAM(+) cells (sMSCs) increasing in number in association with cancer metastasis were analyzed by flow cytometry in the same way as in Example 14, and the number of cells per culture system was counted. In this Example, mouse immunoglobulin manufactured by BioLegend, Inc. (#401408, Cone MG1-45) was used as a control antibody.

[2] = test system: C57/BL/6 mouse-derived bone marrow cells; test: MSC induction inhibition test using mouse bone marrow cells stimulated with FSTL1 (Example 27); type: cell-based; settings: FSTL1 20 ng/mL, antibody 10 μg/mL, 8 days; flow cytometry; FIG. 115A
Experimental: as §1

[3] = test system: GFP+F10-snail+ tumor cells; test: In vivo drug efficacy of each anti-FSTL1 antibody clone, GFP+F10-snail+ tumor model (Example 32); parameters: species or system mouse; settings: intraperitoneal 10 mg/kg on days 4 and 7; for mouse survival period (life-prolonging effect): FIG. 121
Experimental: • Day 0: transplantation of GFP+F10-snail+ tumor cells (3×10^5 cells subcutaneously & 2×10^4 cells intravenously) • Day 4: intraperitoneal administration of the antibody (first dose, 10 mg/kg) • Day 7: intraperitoneal administration of the antibody (second dose, 10 mg/kg)
Subcutaneous tumor was measured 4, 7, 10, 14, 17, 20, and 23 days after tumor cell transplantation.

[4] = test system: mouse melanoma cells (B16-F10) forced to express Snail; test: In vivo, intraperitoneal administration, Snail-positive B16-F10 bone metastasis model (Example 18); parameters: species or system C57BL/6N mice; settings: intraperitoneal 10 mg/kg on days 5 and 10; day 14
Text: 1. Experiment Group (n=5) • 1. No treatment (0.9% NaCi as a sham) • 2. Control IgG (anti-DNP) • 3. Anti-FSTL1 Clone #6-55 • 4. Anti-FSTL1 Clone #7-34 • 5. Anti-FSTL1 Clone #8-1 […]
• Effects on the growth of subcutaneous tumor (calculation of tumor volume by tumor size measurement): measured 7, 11, and 14 days after tumor implantation (FIG. 12B) • Effects on bone metastasis (GFP-positive tumor cells in bone marrow or the spleen) (FIGS. 12A and 12C) • Effects on MSC expansion (CD45-negative cells in bone marrow or the spleen) (FIGS. 12A and 12C) • Effects on weight loss (FIG. 12A) • Effects on the expansion of immunosuppressive Treg cells (CD4-positive and Foxp3-positive cells in the spleen) (FIG. 12C) • Other immunosuppressive properties (FIG. 12C)
(§2) In Example 17, the antibody was administered into tumor according to the purpose of “inhibiting metastasis from a primary focus to bone” as previously conducted by the present inventors. […] Specifically, antitumor effects and immunosuppression-mitigating effects were comparatively analyzed by the intraperitoneal administration (systemic administration) of the anti-FSTL1 antibody using bone metastasis models in which mouse melanoma cells (B16-F10) forced to express Snail were subcutaneously and intravenously transplanted in C57BL/6N mice. […]

[5] = test system: GFP-positive and Snail-positive B16-F10 tumor cells; test: Snail-positive B16-F10 bone metastasis model, intraperitoneal administration (Example 18); type: in vivo, mouse; settings: intraperitoneal 10 mg/kg on days 5 and 10; FIG. 106A
Text: 1. Experiment Group (n=5) • 1. No treatment (0.9% NaCl as a sham) • 2. Control IgG (anti-DNP) • 3. Anti-FSTL1 Clone #6-55 • 4. Anti-FSTL1 Clone #7-34 • 5. Anti-FSTL1 Clone #8-1 […]
• Effects on the growth of subcutaneous tumor (calculation of tumor volume by tumor size measurement): measured 7, 11, and 14 days after tumor implantation (FIG. 106B) • Effects on bone metastasis (GFP-positive tumor cells in bone marrow or the spleen) (FIGS. 106A and 106C) • Effects on MSC expansion (CD45− negative cells in bone marrow or the spleen) (FIGS. 106A and 106C) • Effects on weight loss (FIG. 106A) • Effects on the expansion of immunosuppressive Treg cells (CD4-positive and Foxp3-positive cells in the spleen) (FIG. 106C) • Other immunosuppressive properties (FIG. 106C)
as §2

FSTL1 = molecular target: T1, FSTL1 (Homo sapiens, UniProt Q12841); test: Inhibition of activation of tumor cells by FSTL1, RANKL- and CCR2-positive cells in human pancreatic cancer cell line Panc1 (Examples 5, 7, 9, 10, 11); type: cell-based; parameters: purchased R&D Systems, Inc. 1694-FN-050; settings: Example 9; FSTL1 20 ng/mL, antibody 10 μg/mL, 3 days
T1 sequence (Q12841 21-308): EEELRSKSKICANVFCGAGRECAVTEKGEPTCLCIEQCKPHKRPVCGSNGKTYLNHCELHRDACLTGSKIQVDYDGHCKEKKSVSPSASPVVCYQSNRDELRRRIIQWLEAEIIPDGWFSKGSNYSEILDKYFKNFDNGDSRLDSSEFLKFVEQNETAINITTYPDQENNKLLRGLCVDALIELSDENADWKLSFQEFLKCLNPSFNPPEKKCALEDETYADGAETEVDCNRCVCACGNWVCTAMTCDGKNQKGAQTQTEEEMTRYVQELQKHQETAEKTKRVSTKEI

B1: #13: chicken-mouse chimeric anti-FSTL1 antibody clone; variable regions SEQ ID NO: 815 (light), 817 (heavy) (antibody, V domains shown)
VH: AVTLDESGGGLQTPGGGLSLVCKASGFTFSSVTMQWVRQAPGKGLEWVASICSGSSTYYGPAVKGRATISRDNGQNTVRLQLNNLRAEDTATYYCAKIVGRGRWSCTSAAYNIDAWGHGTEVIVSS
VL: ASTQPSSVSANPGETVKITCSGGGNNYGWYQQKSPGSAPVTVIYNNNNRPSNIPSRFSGSKSGSTNTLTITGVQAEDEAVYYCGSYDSSSDSGIFGAGTTLTVL
modifications: mouse constant regions
MSC induction inhibitory activity (CD45(−) MSCs, CD45(−)CD146(+)ALCAM(+) sMSCs) [1]: strong inhibitory effect equivalent to or higher than that of #6-55
MSC induction inhibitory effect [2]: strong inhibitory effect equivalent to or higher than that of #6-55

B2: #33: chicken-mouse chimeric anti-FSTL1 antibody clone; variable regions SEQ ID NO: 823 (light), 825 (heavy) (antibody, V domains shown)
VH: AVTLDESGGGLQTPGGGLSLVCKASGFTFSSFNMNWVRQAPGKGLEYVAEISGTGSSTYYGSAVKGRATISRDNGQSTVRLQLNNLRAEDTATYFCARGDGAYSIDAWGHGTEVIVSS
VL: ASTQPSSVSANPGETVEITCSGDSSYYGWFQQKSPGSAPVTVIYDNTNRPSDIPSRFSGSKSGSTATLTITGVRAEDEAVYYCGGYDSSTYDGIFGAGTTLTVL
modifications: mouse constant regions
MSC induction inhibitory activity (CD45(−) MSCs, CD45(−)CD146(+)ALCAM(+) sMSCs) [1]: strong inhibitory effect equivalent to or higher than that of #6-55; also recorded: high MSC induction inhibitory activity equivalent to or higher than that of #6-55
MSC induction inhibitory effect [2]: strong inhibitory effect equivalent to or higher than that of #6-55
mouse survival period (life-prolonging effect) [3]: therapeutic effects equal to or higher than those of #6-55

B3: #6-55: chicken-mouse chimeric anti-FSTL1 antibody clone; variable regions SEQ ID NO: 783 (light), 785 (heavy) (antibody, V domains shown)
VH: AVTLDESGGGLQTPGGALSLVCKGSGFTFTSVTMQWVRQAPGKGLEWVASVCSGSSTYYAPAVKGRATISRDNGQSTVRLQLSNLRPEDTGTYYCAKIAGRARWSCTSAAYNIDAWGHGTEVIVSS
VL: ASTQPSSVSAIPGETVKITCSGGGNNYGWYQQRSPGSAPVTVIYYNDNRPSNIPSRFSGSTSGSTSTLTITGVQADDEAIYYCGSWDSNTDSGIFGAGTTLTVL
modifications: mouse constant regions
anti-weight loss effect [4]: an anti-weight loss effect (right graph of FIG. 12A) was confirmed
anti-weight loss effect [5]: confirmed
mouse survival period (life-prolonging effect) [3]: statistically significant life-prolonging effect
suppressive activity against subcutaneous tumor growth ([3]; vs control antibody group, FIG. 120): statistically significant suppressive activity
inhibitory activity against the expansion of RANKL-positive cells and CCR2-positive cells (FSTL1): higher inhibitory activity; also recorded: exhibited inhibitory activity

B4: #5-8: chicken-mouse chimeric anti-FSTL1 antibody clone; variable regions SEQ ID NO: 771 (light), 773 (heavy) (antibody, V domains shown)
VH: AVTLDESGGGLQTPGGGLSLVCKGSGFTFSSFNMFWVRQAPGKGLEWVAGIGKDGVPKYGTAVDGRATISKDNGQSTMRLQLNNLRAEDTGTYFCAKAAGGCSYDWCGIYTGDIDTWGHGTEVIVSS
VL: ASTQPSSVSANPGEAVKITCSGGSGSYYGWYQQKSPGSAPVTVIYNNNQRPSDIPSRFSGSKSGSTATLTITGVQAEDEAVYFCGGYDSSTGHGGIFGAGTTLTVL
modifications: mouse constant regions
inhibitory activity against the expansion of RANKL-positive cells and CCR2-positive cells (FSTL1): higher inhibitory activity; also recorded: exhibited inhibitory activity

B5: #8-1: chicken-mouse chimeric anti-FSTL1 antibody clone; variable regions SEQ ID NO: 791 (light), 793 (heavy) (antibody, V domains shown)
VH: B4 VH with G17A, T61A, T111A
VL: B4 VL with T91S
modifications: mouse constant regions
anti-weight loss effect [4]: an anti-weight loss effect (right graph of FIG. 12A) was confirmed
anti-weight loss effect [5]: confirmed
